From patent publication US20060228300A1

Assays:
CEA = CEA (UniProt P06731); assay: SE-HPLC of 125I-TF2 mixed with a 20-fold molar excess of CEA
[1] = target: fusion protein containing the A3B3 domain of CEA (UniProt P06731); assay: competitive ELISA vs HRP-conjugated hMN-14 IgG (1 nM) on the A3B3 fusion protein
Sequence of fusion protein containing the A3B3 domain of CEA (P06731 499-676): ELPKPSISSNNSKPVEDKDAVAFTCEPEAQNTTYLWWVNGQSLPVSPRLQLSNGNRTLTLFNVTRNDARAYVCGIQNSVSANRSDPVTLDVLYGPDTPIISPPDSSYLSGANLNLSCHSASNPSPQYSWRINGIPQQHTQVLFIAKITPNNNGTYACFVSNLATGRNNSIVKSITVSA

Sequence of CEA (P06731 35-685 limits assumed): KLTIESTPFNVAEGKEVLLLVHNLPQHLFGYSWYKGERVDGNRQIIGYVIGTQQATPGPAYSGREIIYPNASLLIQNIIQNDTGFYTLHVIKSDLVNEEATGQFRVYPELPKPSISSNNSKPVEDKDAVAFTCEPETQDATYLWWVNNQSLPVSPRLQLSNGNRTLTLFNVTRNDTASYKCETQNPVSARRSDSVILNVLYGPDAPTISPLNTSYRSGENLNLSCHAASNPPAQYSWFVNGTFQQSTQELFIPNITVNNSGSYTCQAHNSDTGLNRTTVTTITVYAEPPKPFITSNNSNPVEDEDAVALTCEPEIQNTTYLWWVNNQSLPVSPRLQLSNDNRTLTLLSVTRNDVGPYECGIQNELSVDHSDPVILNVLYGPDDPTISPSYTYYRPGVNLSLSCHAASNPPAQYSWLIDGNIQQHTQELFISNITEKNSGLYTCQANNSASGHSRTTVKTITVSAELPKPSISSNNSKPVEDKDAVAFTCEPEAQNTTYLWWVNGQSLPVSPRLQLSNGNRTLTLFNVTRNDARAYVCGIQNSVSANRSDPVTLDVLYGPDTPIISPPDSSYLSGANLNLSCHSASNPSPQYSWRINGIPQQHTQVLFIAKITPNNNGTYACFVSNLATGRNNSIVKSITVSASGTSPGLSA

In the case of TF2 (bispecific antibody), the percent shifted to a high molecular weight species (CEA) is reported as 95% and the fold avidity against TF1 [1] is reported as 2 fold.
